In PMC3208561, “Phylogenetic and Complementation Analysis of a Single-Stranded DNA Binding Protein Family from Lactococcal Phages Indicates a Non-Bacterial Origin”:

Molecular target: T1, Orf14bIL67 (phage SSB) (Lactococcus phage bIL67, UniProt Q38257 1-123)
T1 sequence: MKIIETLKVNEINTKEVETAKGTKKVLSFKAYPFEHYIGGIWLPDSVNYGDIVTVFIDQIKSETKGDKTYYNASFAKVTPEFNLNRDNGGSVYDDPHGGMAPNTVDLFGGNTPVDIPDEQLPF
Experiment: EMSA; 30°C; protein up to 100 nM, 0.5 nM DNA; 20 mM Tris-HCl pH 7.5, 25 mM KCl, 1 mM EDTA, 1 mM DTT, 2.5% glycerol, 0.3 mg/ml BSA; 10 min at 30 or 38°C; 5% native PAGE in 0.25x TBE at 4°C
Conditions: protein: recombinant; tags: IMPACT-CN (intein) purification; label: 5'-32P

B1: 80-mer oligonucleotide (ssDNA)
DNA: TTTGTCGGTACTTTATATTCTCTTATTACTGGCTCGAAAATGCCTCTGCCTAAATTACATGTTGGCGTTGTTAAATATGGGGG
B1: binds.
